Data from paper PMC3466262, “Crystal Structure of ATV^ORF273, a New Fold for a Thermo- and Acido-Stable Protein from the Acidianus Two-Tailed Virus” (PLoS ONE, 2012).

Legend:
[1] = target: the molecule itself; test: SEC-MALS; Shodex KW803 column, 20 mM citrate buffer pH 3.6, 150 mM NaCl; protein injected at 4 mg/mL (121 uM)
[2] = target: the molecule itself; test: SEC-MALS; Shodex KW803 column, 20 mM Hepes pH 7.4, 100 mM NaCl; protein injected at 4 mg/mL (121 uM)

B1: ATV^ORF273, virion protein of the Acidianus two-tailed virus (recombinant, C-terminal hexa-histidine tag) (natural protein)
chain: MGEKITEEREFQSISEIPEEEIDATNDEEKLADIVENEIEKEIRKSKTRKCKTIENFYYYILRDGKIYPASDYDIEVEKGKRSANDIYAFVETDVTRDFDEFLFDIDYGLPSISDILKFYLEKAGFRIANEVPTPNLKYYIHAVVEFGEDRPQYLAVNIYDIDSLARALRIPQIVEQKLGNKPRTITADEFNDIERIVAEEQPILAGYTYDEALRIPYHYYVDHNNSFKDDALKIAHAYLQLFPTPYQVCYEWKARWFNKIDCLKLERLKPSS
notes: ATV ORF273, virion protein of Acidianus two-tailed virus, UniProt Q3V4T6; native molar mass 32154 Da, recombinant protein 32977 Da; The printed masses (32154 Da native, 32977 Da recombinant) fit the whole ORF plus a His6 tag that is still on the protein; no cleavage of the tag is described; Oligomeric state depends on pH: tetramer at pH 7.4 and 8.5, dimer at pH 3.6; The models hold residues …
stoichiometry N [1]: 2 | stoichiometry N [2]: 4
